The record followed here is paper PMC4220118, “Exploring nicotinamide cofactor promiscuity in NAD(P)H-dependent flavin containing monooxygenases (FMOs) using natural variation within the phosphate binding loop. Structure and activity of FMOs from Cellvibrio sp. BR and Pseudomonas stutzeri NF13” (Journal of Molecular Catalysis. B, Enzymatic, 2014).

In general, Km refers to the substrate concentration at which the rate is half of its maximum. What is called kcat is the number of substrate molecules converted per active site and unit of time at saturation. One may read the kcat/Km as the second-order rate constant that governs catalysis at low substrate concentration. The stoichiometry N is the number of molecules, sites or subunits per partner or assembly.

In one series the target is T1, CFMO (Cellvibrio sp. BR, UniProt I3IEE4).
T1 construct: gene O59_000450; 361 aa; codon-optimised gene in pET-YSBL-LIC-3C, N-terminal 3C-cleavable His6 tag (crystals: non-cleaved protein), E. coli BL21(DE3); dimer
T1 sequence (I3IEE4 1-361): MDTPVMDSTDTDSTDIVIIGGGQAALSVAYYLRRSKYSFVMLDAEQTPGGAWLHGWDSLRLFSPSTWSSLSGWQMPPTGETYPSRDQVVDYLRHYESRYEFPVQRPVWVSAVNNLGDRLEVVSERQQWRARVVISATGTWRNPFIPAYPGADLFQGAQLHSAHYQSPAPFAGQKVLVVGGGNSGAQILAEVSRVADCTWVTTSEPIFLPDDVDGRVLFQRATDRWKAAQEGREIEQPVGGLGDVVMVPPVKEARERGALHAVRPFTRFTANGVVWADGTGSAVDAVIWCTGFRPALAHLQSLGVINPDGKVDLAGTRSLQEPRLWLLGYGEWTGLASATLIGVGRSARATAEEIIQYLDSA
The series can be described thus: X-ray crystal structure, […] Å. The series is classed as binding. Particulars: oxidised FAD at domain interface; co-purified; non-cleaved His-tagged protein.

In another series the target is T2, PSFMO (Stutzerimonas stutzeri, UniProt M2V3J0).
T2 construct: gene B381_09411; 358 aa; codon-optimised gene in pET-YSBL-LIC-3C, N-terminal 3C-cleavable His6 tag (crystals: tag cleaved, linker Gly-2 Pro-1 Ala0 seen), E. coli BL21(DE3)
T2 sequence (M2V3J0 1-358): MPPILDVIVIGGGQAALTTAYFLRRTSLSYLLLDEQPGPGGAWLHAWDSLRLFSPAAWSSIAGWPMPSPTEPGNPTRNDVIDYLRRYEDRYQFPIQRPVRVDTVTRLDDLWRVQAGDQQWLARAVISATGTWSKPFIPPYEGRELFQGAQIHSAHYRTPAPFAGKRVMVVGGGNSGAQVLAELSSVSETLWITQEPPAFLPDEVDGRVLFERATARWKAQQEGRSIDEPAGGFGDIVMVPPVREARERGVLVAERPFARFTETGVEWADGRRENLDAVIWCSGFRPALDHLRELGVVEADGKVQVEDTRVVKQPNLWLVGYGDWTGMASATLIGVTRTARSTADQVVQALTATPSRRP
Kind of series: X-ray crystal structure, […] Å. It is filed as binding. The conditions noted are these: oxidised FAD; co-purified; tag-cleaved protein.

Substrate in series [1]: NC(=O)C1=CN([C@@H]2O[C@H](COP(=O)(O)OP(=O)(O)OC[C@H]3O[C@@H](n4cnc5c(N)ncnc54)[C@H](OP(=O)(O)O)[C@@H]3O)[C@@H](O)[C@H]2O)C=CC1
The series can be described thus: purified protein. Particulars: Tris-HCl pH 7.5, 3.9 nmol enzyme in 1 mL, NADPH 10-100 μM. It is filed as biochemical, Stutzerimonas stutzeri.

Substrate in series [2]: NC(=O)C1=CN([C@@H]2O[C@H](COP(=O)(O)OP(=O)(O)OC[C@H]3O[C@@H](n4cnc5c(N)ncnc54)[C@H](O)[C@@H]3O)[C@@H](O)[C@H]2O)C=CC1
The series can be described thus: purified protein. It is filed as biochemical, Stutzerimonas stutzeri. The conditions noted are these: Tris-HCl pH 7.5, 3.9 nmol enzyme in 1 mL, NADH 10-100 μM.

Series [3] concerns the molecule itself. Kind of series: SEC; size-exclusion studies of PSFMO (not shown). For orientation: In gel filtration, larger molecules generally elute earlier.
Substrate in series [4]: NC(=O)C1=CN([C@@H]2O[C@H](COP(=O)(O)OP(=O)(O)OC[C@H]3O[C@@H](n4cnc5c(N)ncnc54)[C@H](OP(=O)(O)O)[C@@H]3O)[C@@H](O)[C@H]2O)C=CC1
Kind of series: purified protein. It is filed as biochemical, Cellvibrio sp. BR. Particulars: Tris-HCl pH 7.5, 3.9 nmol enzyme in 1 mL, NADPH 10-100 μM.

Substrate in series [5]: NC(=O)C1=CN([C@@H]2O[C@H](COP(=O)(O)OP(=O)(O)OC[C@H]3O[C@@H](n4cnc5c(N)ncnc54)[C@H](O)[C@@H]3O)[C@@H](O)[C@H]2O)C=CC1
Kind of series: purified protein. The conditions noted are these: Tris-HCl pH 7.5, 3.9 nmol enzyme in 1 mL, NADH 10-100 μM. The series is classed as biochemical, Cellvibrio sp. BR.

`Cc1cc2nc3c(=O)[nH]c(=O)nc-3n(C[C@H](O)[C@H](O)[C@H](O)COP(=O)(O)OP(=O)(O)OC[C@H]3O[C@@H](n4cnc5c(N)ncnc54)[C@H](O)[C@@H]3O)c2cc1C` [FAD]: the “X-ray crystal structure, 2.39 Å” value on CFMO was “This was successfully modelled and refined as FAD in the flat, oxidised form”. Moreover, the “X-ray crystal structure, 1.83 Å” value at PSFMO is “FAD was again clearly visible in the omit map after building and refinement”.

B1: Flavin-containing monooxygenase from Pseudomonas stutzeri NF13 (PSFMO), as used in size-exclusion studies (enzyme, UniProt M2V3J0 1-358, looked up)
chain: T2 sequence (M2V3J0 1-358)
notes: PSFMO, putative FMO from Pseudomonas stutzeri NF13, Uniprot M2V3J0, 358 amino acids; synthetic gene amplified with primers from the ATG start codon to the stop codon; Same construct as m2
Consider B1, for which, in “purified protein [1]”, the Km came out at 17 ± 2.0 µM, the kcat is 0.04 s⁻¹ and the kcat/Km is 2350 M⁻¹ s⁻¹. In the series “purified protein [2]”, the Michaelis constant (Km) was 16 ± 2 µM, the turnover number (kcat) was determined as 0.03 s⁻¹ and the catalytic efficiency (kcat/Km) stood at 1880 M⁻¹ s⁻¹. The “stoichiometry N” value in series [3] came to 2.

B2: CFMO (Cellvibrio sp. BR) (protein)
chain: T1 sequence (I3IEE4 1-361)
notes: 361 aa; codon-optimised gene in pET-YSBL-LIC-3C, N-terminal 3C-cleavable His6 tag (crystals: non-cleaved protein), E. coli BL21(DE3); dimer
Take B2: in the series “purified protein [4]”, the Michaelis-Menten constant (Km) worked out at 5 ± 1 µM, the turnover number (kcat) turned out to be 0.02 s⁻¹ and the kcat/Km came out at 4000 M⁻¹ s⁻¹. Further, in the series “purified protein [5]”, the Km turned out to be 3 ± 1 µM, the kcat turned out to be 0.02 s⁻¹ and the catalytic efficiency (kcat/Km) came out at 6670 M⁻¹ s⁻¹.
